Publication PMC11153517

What was measured:
[1] = molecular target: human tumor necrosis factor (TNF)-α (human) (UniProt P01375)
[2] = molecular target: human tumor necrosis factor (TNF)-α (human) (UniProt P01375); remark: listed apart in the source

Chain of UniProt P01375 (P01375 whole entry): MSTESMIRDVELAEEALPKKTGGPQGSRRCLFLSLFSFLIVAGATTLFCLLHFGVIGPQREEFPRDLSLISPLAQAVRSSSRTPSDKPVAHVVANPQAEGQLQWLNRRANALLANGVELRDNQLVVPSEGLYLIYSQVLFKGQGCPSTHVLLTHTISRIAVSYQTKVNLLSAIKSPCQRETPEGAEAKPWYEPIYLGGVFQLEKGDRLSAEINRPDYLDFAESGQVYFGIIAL

PIYLGGVFQ [peptide …]
apoptosis of Wehi-164 cells with TNFα (100 ng/ml) and actinomycin D, MTT assay, 20 h; peptide 50, 100 and 200 μM premixed with TNFα; 70% cell death with TNFα and AcD without the peptide [1]: 26.4 % apoptosis
inhibition of TNFα-induced NFκB (p65) nuclear translocation in A549 cells, Western blot of nuclear extract; peptide 50, 100 and 200 μM (49%, 56% and 65%) [2]: 65 % inhibition
